The nature of one data set: in vivo. Also on record: species or system female nude mice. To be noted: female, nude, mouse, iv, 10 uCi, total radioactivity. On the procedure: Compound ^64Cu-TE2A-c(RGDyK) (38) (10 μCi) in PBS (120 μl) was injected to the tails of female nude mice to which U87MG tumor had been transplanted. Two groups were examined at two time points [n=4 per group at 1 hr and 4 hr post injection (pi)]. The subject animals were sacrificed, and the relevant tissues and organs were removed and weighed. A dosimetric procedure was carried out by using a gamma-counter. The calculations were performed by comparing with a reference value of which the percentage of injected amount per gram was known.

Data set [1] is described as follows: Cyclic voltammetry (electrochemical experiment). Particulars: irreversible (irrev); 2 mM, 100 mV/s, 0.1 M sodium acetate pH 7.0, glassy carbon electrode. The class given is physicochemical. Here is the method: Cyclic voltammetry was carried out by using biological model SP-150 having a 3-electrode structure. The working electrode was made of glassy carbon (diameter=3 mm), the reference electrode Ag/AgCl (saturated KCl), and the counter electrode Pt wire. A sample (2 mM) of compound (30) was operated at a scanning speed of 100 mV/s in a 0.1 M aqueous sodium acetate solution adjusted to pH 7.0 with glacial acetic acid. From the solution, oxygen was removed by bubbling Ar for 30 minutes. During the measurement, the system was maintained under Ar atmosphere.

The structures appear in SMILES notation.

Take `N=C(N)NCCC[C@@H]1NC(=O)[C@H](CCCCNC(=S)Nc2ccc(CCN3CCCN(CC(=O)O)CCNCCCN(CC(=O)O)CC3)cc2)NC(=O)[C@@H](Cc2ccc(O)cc2)NC(=O)[C@H](CC(=O)O)NC(=O)CNC1=O` [^64Cu-TE2A-c(RGDyK), metal not drawn]: the tissue uptake – broadly, the share of the injected amount in each gram of the tissue – at 1 h in “in vivo” (% ID/g Blood) amounted to 0.55 ± 0.18 %ID/g; in the data set “in vivo” (% ID/g Bone), 0.66 ± 0.23 %ID/g; in “in vivo” (% ID/g Fat) it was 1.28 ± 0.55 %ID/g; in “in vivo” (% ID/g Intestine), 2.14 ± 0.53 %ID/g; in “in vivo” (% ID/g Kidney), 3.47 ± 0.61 %ID/g; in “in vivo” (% ID/g Liver), 5.45 ± 1.14 %ID/g. Further, the tissue uptake at 1 h was 1.46 ± 0.34 %ID/g in “in vivo” (% ID/g Lung); 0.49 ± 0.3 %ID/g in the data set “in vivo” (% ID/g Muscle); 1.17 ± 0.46 %ID/g in the data set “in vivo” (% ID/g Spleen); 1.78 ± 0.55 %ID/g in “in vivo” (% ID/g Stomach); 2.98 ± 0.39 %ID/g in “in vivo” (% ID/g Tumor 1); 3.49 ± 1.67 %ID/g in “in vivo” (% ID/g Tumor 2). For the same molecule, the tissue uptake at 4 h stood at 0.43 ± 0.09 %ID/g in the data set “in vivo” (% ID/g Blood); 0.41 ± 0.06 %ID/g in the data set “in vivo” (% ID/g Bone); 1.15 ± 1.08 %ID/g in “in vivo” (% ID/g Fat); 2.17 ± 0.62 %ID/g in “in vivo” (% ID/g Intestine); 2.71 ± 0.45 %ID/g in “in vivo” (% ID/g Kidney); 4.45 ± 0.65 %ID/g in the data set “in vivo” (% ID/g Liver). For the same molecule, the tissue uptake at 4 h came to 1.14 ± 0.17 %ID/g in “in vivo” (% ID/g Lung); 0.24 ± 0.11 %ID/g in the data set “in vivo” (% ID/g Muscle); 1.04 ± 0.46 %ID/g in “in vivo” (% ID/g Spleen); 1.03 ± 0.39 %ID/g in “in vivo” (% ID/g Stomach); 3.01 ± 1 %ID/g in the data set “in vivo” (% ID/g Tumor 1); 3.32 ± 0.49 %ID/g in the data set “in vivo” (% ID/g Tumor 2).
In the case of `O=C([O-])CN1CCCNCCN(CC(=O)[O-])CCCNCC1.[Cu+2]` [Cu-TE2A], the “Ered (V) for Ag/AgCl” value in data set [1] is −1.05 (irrev) V.

These data come from patent US9079867B2, “Polyazamacrocyclic compound, and a production method and a biomedical use therefor” (KYUNGPOOK NATIONAL UNIVERSITY INDUSTRY-ACADEMIC COOPERATION …, priority 2010, dated 2015).
